We go through 1 molecule from patent US20180362652A1 (Biogen, published 2018).

Values joined by “and” are separate entries in the source; they are usually repeats but may differ in a detail not shown here. Equal entries are not always repeated.

For test [1], the target named is T1, cynomolgus monkey BDCA2 (full-length, cell surface, E73 SNP form) (cynomolgus monkey, UniProt Q8WTT0 1-213 (human entry)).
T1 construct: also called cyno BDCA2; surface cynomolgus monkey BDCA2
T1 chain: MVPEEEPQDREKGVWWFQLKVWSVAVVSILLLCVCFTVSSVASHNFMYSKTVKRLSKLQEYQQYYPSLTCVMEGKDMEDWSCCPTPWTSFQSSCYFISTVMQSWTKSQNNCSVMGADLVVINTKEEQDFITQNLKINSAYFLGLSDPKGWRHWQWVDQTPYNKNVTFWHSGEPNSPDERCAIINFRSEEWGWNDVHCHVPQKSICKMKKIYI
Briefly: indirect method: flow cytometry of pDCs in cynomolgus whole blood, unlabelled BIIB059 titrated, free BDCA2 detected with the competitor BIIB059-A647 at 10 ug/mL [panel Cynomolgus monkey 8]. As to the method: The MFI of PE (open symbols, graphed on the left y-axis) or A647 (closed symbols, graphed on the right y-axis) was calculated in FlowJo software, and graphed using GraphPad Prism software (four-parameter nonlinear regression curve fit of log-transformed data).

Test [2] deals with T1, cynomolgus monkey BDCA2 (full-length, …). Briefly: flow cytometry, whole blood pDCs of cynomolgus monkey donor 2, anti-human IgG PE secondary. As to the method: (§1) The MFI of PE was calculated in FlowJo software, and the percent of maximal binding, using the 40 μg/mL point as 100%, was computed. Each line represents one individual cynomolgus monkey, for a total of twelve cynomolgus monkeys, and graphed using GraphPad Prism software (four-parameter nonlinear regression curve fit of log-transformed data). Staining was repeated once a week for three weeks total.
(§2) The maximal values were taken from the values at the plateau in each assay (FIGS. 24 and 25).
(§3) MFI of PE was calculated with FlowJo software, and EC50 curves were generated in GraphPad Prism software.

For test [3] the target is unchanged. Briefly: flow cytometry, whole blood pDCs of cynomolgus monkey donor 9, anti-human IgG PE secondary. As for the experimental part:
as §1, §2, §3

Test [4] shares this target. Description: flow cytometry, whole blood pDCs of cynomolgus monkey donor 12, anti-human IgG PE secondary. As for the experimental part: as §1, §2, §3
The target is the same in test [5]. Description: flow cytometry, whole blood pDCs of cynomolgus monkey donor 8, anti-human IgG PE secondary. As for the experimental part: as §1, §2, §3
For test [6], the target named is T2, monomeric huBDCA2 ectodomain (human, UniProt Q8WTT0 45-213).
T2 construct: Prepared by proteolytic cleavage of the purified muIgG2a Fc-huBDCA2 fusion protein (pEAG2423); also called human BDCA2 ectodomain; human BDCA2 ECD
T2 sequence: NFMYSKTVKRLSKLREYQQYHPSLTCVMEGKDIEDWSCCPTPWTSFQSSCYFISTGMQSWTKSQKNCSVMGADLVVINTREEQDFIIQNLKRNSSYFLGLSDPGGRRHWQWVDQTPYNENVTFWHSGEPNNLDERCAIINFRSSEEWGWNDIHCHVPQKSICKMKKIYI
Briefly: Octet, mAb from conditioned medium on anti-human Fc tips, monomeric huBDCA2 in solution. As for the experimental part:
Backmutation to the unpaired cysteine, i.e., S95C, was constructed by site-directed mutagenesis producing plasmid pYL749. Variants S95T, S95A, and S95V were constructed by site-directed mutagenesis producing plasmids pYL750, pYL751, and pYL752, respectively. The full-length light chain cDNA sequences in the resultant plasmids were confirmed by DNA sequencing. […] Conditioned medium was harvested at 2 days post-transfection. […] Conditioned medium containing the C95 variant mAbs was assayed by Octet for binding to human BDCA2 ectodomain. Antibodies from conditioned medium from transiently transfected cells were bound to anti-human Fc tips, then monomeric huBDCA2 was flowed over the Octet tips, to examine binding and dissociation.

For test [7], the target named is T3, human BDCA2 (full-length, cell surface) (human, UniProt Q8WTT0 1-213).
T3 construct: also called huBDCA2; surface human BDCA2
T3 sequence: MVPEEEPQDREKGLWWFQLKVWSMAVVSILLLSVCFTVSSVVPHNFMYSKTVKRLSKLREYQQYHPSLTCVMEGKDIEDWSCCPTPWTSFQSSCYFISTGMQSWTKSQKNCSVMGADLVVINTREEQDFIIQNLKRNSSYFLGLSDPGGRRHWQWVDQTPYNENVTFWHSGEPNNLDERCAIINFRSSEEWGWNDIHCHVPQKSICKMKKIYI
Briefly: flow cytometry, whole blood, Alexa647-labeled BIIB059 on pDCs. As for the experimental part:
(§4) Cynomolgus monkey (Toxikon, Inc, Bedford, Mass.) or human peripheral blood (Biogen Idec) were collected in sodium heparin collection tubes and maintained at room temperature. A FACS staining antibody cocktail for identifying pDCs was added to each whole blood aliquot, incorporating CD20, CD14, CD123 and HLA-DR antibodies. […] Blood was incubated on ice, protected from light, for 30 min. […] After a 10-15 min. incubation at room temperature, samples were centrifuged at 1400 rpm for 5 min. The supernatant was decanted, leaving only a pellet of white blood cells (WBC). Each WBC pellet was washed with 5 mL of FACS buffer (1% BSA+0.002% NaAzide+1 mM CaCl₂+1 mM MgCl₂ in PBS), and centrifuged at 1400 rpm for 5 min. The supernatant was decanted, and each WBC pellet was resuspended in 200 μL of FACS buffer and transferred to a 96-well round bottom plate (Fisher Scientific). The plate was centrifuged at 1400 rpm for 5 min. The supernatant was dumped out of the plate, and each WBC pellet was washed with 200 μL of FACS buffer. The plate was centrifuged at 1400 rpm for 5 min, and the supernatant dumped out of the plate. Following washing (as above), WBCs were resuspended in 200 μL of 1% paraformaldehyde (PFA) in PBS, and fixed at 4° C. overnight, protected from light. […] Each WBC pellet was resuspended in 250 μL of FACS buffer and fluorescence intensity measured on a LSRII 4-color FACS machine. […]

The target in test [8] is T1, cynomolgus monkey BDCA2 (full-length, …). The description is as above. As to the method: as §4

B1: BIIB059 (antibody, human IgG1, kappa)
heavy: not shown
light: DIQLTQSPSSLSASVGDRVTITCKASQSVDYDGDSYMNWYQQKPGKAPKLLIYAASTLESGVPSRFSGSGSGTDFTLTISSLQPEDFATYYCQQANEDPRTFGQGTKVEIKRTVAAPSVFIFPPSDEQLKSGTASVVCLLNNFYPREAKVQWKVDNALQSGNSQESVTEQDSKDSTYSLSSTLTLSKADYEKHKVYACEVTHQGLSSPVTKSFNRGEC
notes: Humanized IgG1 kappa, mature chains; in some assays labelled with Alexa647; also called hu24F4 H4/L1 C95A; H4-L1-C95A (YL751/YL746)
Regarding B1, in test [1], the “IC50 (read off the curve)” value was roughly 2 µg/mL. Also, the half-maximal effective concentration (EC50) is 1 µg/mL in test [2]; 1.4 µg/mL in test [3]; 1.6 µg/mL in test [4]; 1.2 µg/mL in test [5]; 1 µg/mL to 2 µg/mL (2×) and 7 nM to 13 nM in test [7]; 2 µg/mL and 7 nM to 13 nM in test [8]. This molecule also had a dissociation constant Kd in test [6] of 0.261 nM.
